One assay concerns the target HLA-A*02:01. The assay is described as follows: IEDB peptide-MHC binding, purified MHC/competitive/radioactivity; ≥ and ≤ were set here for values at or beyond the usual limits of such assays.
The target in another assay is HLA-A*02:03. The assay is described as above.
The target of the next assay is HLA-A*02:02. Described as above.
The target of the next assay is HLA-A*68:02. The assay is described as follows: IEDB peptide-MHC binding, cellular MHC/competitive/fluorescence; ≥ and ≤ were set here for values at or beyond the usual limits of such assays.
The target of a further assay is HLA-A*02:06. The assay is described as above.
[1] abbreviates: source organism: Vaccinia virus WR.
The mark [2] stands for this setting: source organism: Mammarenavirus choriomeningitidis.
Setting [3] is: source organism: Mammarenavirus whitewaterense.

Take GLTTHCTKL: the IC50 (commonly the point on the concentration scale where inhibition reaches its midpoint) with HLA-A*02:01 (setting [1]) was 613 nM; in the assay with HLA-A*02:03 (setting [1]), 30 nM; with HLA-A*02:02 (setting [1]) it was 100 nM; in the assay with HLA-A*68:02 (setting [1]), at least 70000 nM; with HLA-A*02:06 (setting [1]), 31600 nM.
The corresponding values for LLENKSLTIL are 1150 nM, 541 nM, 185 nM, 21300 nM and 7430 nM.
Turning to SLKRFTHTTA, the IC50 with HLA-A*02:01 (setting [1]) was determined as 4540 nM; with HLA-A*02:03 (setting [1]), 726 nM; with HLA-A*02:02 (setting [1]), 884 nM; in the assay with HLA-A*68:02 (setting [1]), 6080 nM; in the assay with HLA-A*02:06 (setting [1]), 7310 nM.
The corresponding values for KLFKRERDA are 859 nM, 985 nM, 2390 nM, 35800 nM and 14900 nM.
On to LINLVQYRIL, for which the IC50 came out at 2220 nM with HLA-A*02:01 (setting [1]); 2250 nM in the assay with HLA-A*02:03 (setting [1]); 2120 nM with HLA-A*02:02 (setting [1]); 30000 nM in the assay with HLA-A*68:02 (setting [1]); 15900 nM with HLA-A*02:06 (setting [1]).
RLYNSLKRFT: the IC50 with HLA-A*02:01 (setting [1]) was 873 nM; with HLA-A*02:03 (setting [1]), 444 nM; with HLA-A*02:02 (setting [1]), 1060 nM; with HLA-A*68:02 (setting [1]) it was 14600 nM; with HLA-A*02:06 (setting [1]), 7280 nM.
For the sequence KCMSAALKNL, the half-maximal inhibitory concentration (IC50) with HLA-A*02:01 (setting [2]) amounted to 1560 nM; with HLA-A*02:03 (setting [2]), 193 nM; with HLA-A*02:02 (setting [2]), 58 nM; with HLA-A*68:02 (setting [2]), 43500 nM; with HLA-A*02:06 (setting [2]), 14000 nM.
With DMDFDLNIFM, the IC50 with HLA-A*02:01 (setting [1]) was 1750 nM; with HLA-A*02:03 (setting [1]) it was 5000 nM; with HLA-A*02:02 (setting [1]), 1150 nM; with HLA-A*68:02 (setting [1]) it was 7300 nM; with HLA-A*02:06 (setting [1]), 5320 nM.
The matching figures for MAFILGIIIT: 663 nM, 2830 nM, 4680 nM, 5160 nM and 10300 nM.
Consider QLSNNKYVL, for which the IC50 with HLA-A*02:01 (setting [1]) amounted to 1810 nM; with HLA-A*02:03 (setting [1]), 4940 nM; with HLA-A*02:02 (setting [1]), 79 nM; in the assay with HLA-A*68:02 (setting [1]) it was 12500 nM; with HLA-A*02:06 (setting [1]), 10700 nM.
Turning to IINSVSIIL, the IC50 in the assay with HLA-A*02:01 (setting [1]) stood at 2090 nM; with HLA-A*02:03 (setting [1]) it was 2900 nM; in the assay with HLA-A*02:02 (setting [1]), 705 nM; with HLA-A*68:02 (setting [1]), 29900 nM; in the assay with HLA-A*02:06 (setting [1]), 25900 nM.
The corresponding values for DTGKKELALT are 1680 nM, 262 nM, 1040 nM, 10000 nM and 6800 nM.
Consider GLSASDVDM, for which the IC50 with HLA-A*02:01 (setting [1]) is 1720 nM; with HLA-A*02:03 (setting [1]), 3540 nM; with HLA-A*02:02 (setting [1]), 497 nM; in the assay with HLA-A*68:02 (setting [1]) it was at least 70000 nM; in the assay with HLA-A*02:06 (setting [1]), 13800 nM.
Turning to RLRYNLCKYL, the IC50 in the assay with HLA-A*02:01 (setting [1]) worked out at 3250 nM; with HLA-A*02:03 (setting [1]), 0.3 nM; with HLA-A*02:02 (setting [1]) it was 261 nM; with HLA-A*68:02 (setting [1]), 19200 nM; with HLA-A*02:06 (setting [1]) it was 15700 nM.
In the case of SMKGENVFI, the IC50 is 611 nM in the assay with HLA-A*02:01 (setting [1]); 19 nM with HLA-A*02:03 (setting [1]); 5.5 nM with HLA-A*02:02 (setting [1]); 9340 nM with HLA-A*68:02 (setting [1]); 13700 nM in the assay with HLA-A*02:06 (setting [1]).
Regarding KLFKRERDAI, the IC50 is 1480 nM with HLA-A*02:01 (setting [1]); 120 nM with HLA-A*02:03 (setting [1]); 92 nM with HLA-A*02:02 (setting [1]); at least 70000 nM with HLA-A*68:02 (setting [1]); 14200 nM with HLA-A*02:06 (setting [1]).
For HLENDKIEDL, the IC50 turned out to be 1800 nM with HLA-A*02:01 (setting [1]); 414 nM with HLA-A*02:03 (setting [1]); 526 nM with HLA-A*02:02 (setting [1]); 27100 nM with HLA-A*68:02 (setting [1]); 10600 nM with HLA-A*02:06 (setting [1]).
On to HIGHHYIWI, for which the IC50 worked out at 2990 nM with HLA-A*02:01 (setting [1]); 899 nM with HLA-A*02:03 (setting [1]); 2560 nM with HLA-A*02:02 (setting [1]); 19900 nM in the assay with HLA-A*68:02 (setting [1]); 25300 nM with HLA-A*02:06 (setting [1]).
Consider INISGYNLSL, for which the IC50 with HLA-A*02:01 (setting [3]) is 1830 nM; with HLA-A*02:03 (setting [3]), 1360 nM; with HLA-A*02:02 (setting [3]) it was 179 nM; in the assay with HLA-A*68:02 (setting [3]), 17400 nM; in the assay with HLA-A*02:06 (setting [3]) it was 11400 nM.
For the sequence NLRCHSAHV, the IC50 in the assay with HLA-A*02:01 (setting [1]) came to 3060 nM; in the assay with HLA-A*02:03 (setting [1]), 11 nM; with HLA-A*02:02 (setting [1]), 384 nM; in the assay with HLA-A*68:02 (setting [1]) it was 8200 nM; with HLA-A*02:06 (setting [1]) it was 8030 nM.
As for LLEMKYALI, the IC50 in the assay with HLA-A*02:01 (setting [1]) was determined as 2540 nM; in the assay with HLA-A*02:03 (setting [1]), 135 nM; with HLA-A*02:02 (setting [1]) it was 354 nM; in the assay with HLA-A*68:02 (setting [1]) it was 35800 nM; with HLA-A*02:06 (setting [1]), 14900 nM.
On to QILDNAAKYV, for which the IC50 worked out at 3480 nM with HLA-A*02:01 (setting [1]); 3870 nM with HLA-A*02:03 (setting [1]); 3930 nM with HLA-A*02:02 (setting [1]); 35800 nM in the assay with HLA-A*68:02 (setting [1]); 11400 nM with HLA-A*02:06 (setting [1]).
With GMMQNDYGGM, the IC50 in the assay with HLA-A*02:01 (setting [1]) was 705 nM; with HLA-A*02:03 (setting [1]), 589 nM; with HLA-A*02:02 (setting [1]), 103 nM; in the assay with HLA-A*68:02 (setting [1]) it was 26400 nM; with HLA-A*02:06 (setting [1]), 12000 nM.

Values taken from the Immune Epitope Database (IEDB).
